Experimental data reported in patent US7265263B1, “Potato transcription factors, methods of use thereof, and a method for enhancing tuber development” (Iowa State University Research Foundation, Inc., priority 2002, dated 2007).

Key:
[1] = biological target: T1, StBEL-05 in pBridge (fusion with the GAL4 DNA-binding domain) (Solanum tuberosum); test: yeast two-hybrid, swapped vectors
T1 construct: Swapped two-hybrid orientation; also called prey cDNA cloned into pBridge

StBEL-05 [2] = test: In vitro binding assay of POTH1 deletion constructs with StBEL-05; design: species or system Solanum tuberosum; details: in vitro binding protocol
Method: In vitro binding experiments were performed as described by Ni et al., “PIF3, a Phytochrome-Interacting Factor Necessary for Normal Photoinduced Signal Transduction, is a Novel Basic Helix-Loop-Helix Protein,” Cell 95:657-667 (1998), which is hereby incorporated by reference in its entirety. The full-length sequence for POTH1 was cloned into a pET17b/GAD fusion cassette and transcribed under the control of the T7 promoter. […] Each 50 μl TnT reaction contained 2.0 μg of template plasmid DNA and 20 μmol (20 μCi) of labeled ^35S-methionine. The POTH1:GAD/BEL complex was immunoprecipitated with anti-GAD antibodies (Santa Cruz Biotechnology, Calif.). The proteins from the pellet (one-half the fraction) and for the prey (one-fourth of the reaction volume) were resolved on a 10% SDS-PAGE gel and visualized by autoradiography. […] Control experiments identified the first 114 aa of the N-terminus (pBHD9) as a transcriptional activator. […] Co-transformation of pBHD9 with an empty pGAD cassette produced transformants capable of growth on -histidine, -tryptophan, -adenine, and -leucine medium and induction of lacZ. None of the other constructs containing this domain were capable of growing on selection media without StBEL-05.

StBEL-05 [3] = test: Yeast two-hybrid interaction of POTH1 deletion constructs with StBEL-05; type: binding, Solanum tuberosum; details: yeast AH109
Method: The StBEL-05 deletion constructs were amplified by PCR, then cloned into the vector, pGAD, in-frame with the GAL4 activation domain. POTH1 deletion constructs were amplified by PCR, and cloned into pBridge (Clontech) in-frame with the GAL4 binding domain. Sequencing of selected cDNAs and constructs was performed at the Iowa State University DNA Facility. For deletion analysis, modified constructs of POTH1 were cloned into the pBridge vector for fusion with the DNA-binding domain of GAL4 (FIG. 10A). For StBEL-05, constructs were cloned into the pGAD vector for fusion with the activating domain of GAL4 (FIG. 10B). Deletion constructs were made from both the amino and carboxy termini. These mutants were then tested for interaction in the yeast two-hybrid system by cotransforming into yeast strain AH109 with the corresponding full-length partner (StBEL-05 in pGAL4 or POTH1 in pBridge). All constructs were sequenced to verify that they were in-frame. Positive interactions were verified for lacZ induction by using a β-galactosidase assay (Pierce Chemical Company). For POTH1, seven deletion constructs were tested (FIG. 10A). For the BEL TFs, a fusion construct of StBEL-05 (653 aa of StBEL-05 sequence) and nine deletion constructs were tested (FIG. 10B).

[4] = biological target: T2, POTH1 in pBridge (full-length POTH1 fused with the GAL4 DNA-binding domain) (Solanum tuberosum); test: yeast two-hybrid deletion analysis
T2 construct: Bait of the yeast two-hybrid screen and partner of the StBEL-05 deletion constructs; also called pBHD; pBridge:POTH1
Source text: The Matchmaker two-hybrid system (Clontech, Calif.) was used for the yeast two-hybrid screen. Yeast transformation and plasmid rescue into DH5-α *E. coli* cells were according to the manufacturer's instructions. Full-length POTH1 was cloned into the pBridge (Clontech, Calif.) vector and used as bait to screen the potato (*S. tuberosum* 'Desireé') stolon cDNA library in pAD-GAL4-2.1 (Stratagene, Calif.). Positive interactions were confirmed by cotransforming yeast strain AH109 with each purified pAD plasmid and pBridge: POTH1 and plating on -leucine/-tryptophan (transformation control) and -leucine/-tryptophan/-histidine/-adenine (selection) nutrient medium. Induction of the AH109 reporter gene, lacZ, was measured with a yeast β-galactosidase assay kit (Pierce Chemicals). β-galactosidase activity (FIG. 9B) was determined from a known density of yeast cells and calculated as 1000 ×OD420/time of color reaction (minutes)×volume of yeast culture (ml)×$OD600$.
The StBEL-05 deletion constructs were amplified by PCR, then cloned into the vector, pGAD, in-frame with the GAL4 activation domain. POTH1 deletion constructs were amplified by PCR, and cloned into pBridge (Clontech) in-frame with the GAL4 binding domain. Sequencing of selected cDNAs and constructs was performed at the Iowa State University DNA Facility. […]

B1: pBHD9 construct cloned into the pGAD vector (other, not shown: large carriers)
chain: MDDEMYGFHSTRDDYADKALMSPENLMMQTEYNNFHNYTNSSILTSNPMMFGSDDIQLSSEQTNSFSTMTLQNNDNIYQIRSGNCGGGSGSGGSSKDHNDNNNNNEDYDEDGSN
notes: also called pBDH9 construct in pGAD
[1]
  binding result: no binding

B2: pBHD-9: POTH1 deletion construct, first amino-terminal 114 aa, no KNOX domain sequence (protein)
chain: B1 chain
StBEL-05 [2]
  pull-down of StBEL-05: unable to pull-down StBEL-05
StBEL-05 [3]
  interaction with StBEL-05: Interaction with StBEL-05 was observed

B3: pAD5-2 (StBEL-05 deletion construct in pGAD) (other, not shown: small tags and cut ends)
chain: EEVEQRYRQYHHQMQIIVLSFEQVAGIGSAKSYTQLALHAISKQFRCLKDAIAEQVKATSKSLGEEEGLGGKIEGSRLKFVDHHLRQQRALQQIGMMQPNAWRPQRGLPERAVSVLRAWLFEHFLHPYPKDSDKIMLAKQTGLTRSQVSNWFINARVRLWKPMVEEMYLEEVKNQEQNSTNTSGDNKNKETNISAPNEEKHPIITSSLLQDGITTTQAEISTSTISTSPTAGASLHHAHNFSFLGSFNMDNTTTTVDHIENNAKKQRNDMHKFSPSSILSSVDMEAKARESSNKGFTNPLMAAYAMGDFGRFDPHDQQMTANFHGNNGVSLTLGLPPSENLAMPVSQQNYLSNDLGSRSEMGSHYNRMGYENIDFQSGNKRFPTQLLPDFVTGNLGT
notes: Residues converted from pAD-05 numbering
[4]
  binding result: no binding
